# In patent EP4803549A1 (Leads Biolabs Inc., dated 2026):
# Substitutions are numbered along the chain they refer to. Names may count otherwise.
# T1: human BCMA protein expressed on the cell surface (human, UniProt Q02223 1-184)
# T1 construct: whole, on cells; also called CHO-K1-huBCMA; CHOK1-huBCMA
# T1 sequence (looked up): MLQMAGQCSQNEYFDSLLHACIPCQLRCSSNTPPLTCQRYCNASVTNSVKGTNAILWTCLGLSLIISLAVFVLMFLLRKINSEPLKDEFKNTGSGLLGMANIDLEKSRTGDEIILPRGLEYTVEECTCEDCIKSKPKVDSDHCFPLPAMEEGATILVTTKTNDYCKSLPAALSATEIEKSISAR
# T2: human BCMA-His protein (ACRO, Cat#: BCA-H522y) (human, UniProt Q02223 1-54)
# T2 construct: Bought protein; also called Human BCMA protein; huBCMA-his
# T2 sequence: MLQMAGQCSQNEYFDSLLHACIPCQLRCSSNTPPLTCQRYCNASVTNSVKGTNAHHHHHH
# B1: huBH56-3-CD3ScFv (bispecific antibody)
# heavy 1: EVQVVESGGGLIQPGGSLRLSCAASGFTFAPSAMSWARQPPGKEVEWVSGIYGDGRTTYADSVKGRFTISRDNSKNTVYLQMNSLRAEDTAVYYCVVGIRLLSESWAQALRGQGTQVTVSSEPKSSDKTHTCPPCPAPEAAGGPSVFLFPPKPKDTLMISRTPEVTCVVVAVSHEDPEVKFNWYVDGVEVHNAKTKPREEQYNSTYRVVSVLTVLHQDWLNGKEYKCKVSNKALAAPIEKTISKAKGQPREPQVCTLPPSRDELTKNQVSLSCAVKGFYPSDIAVEWESNGQPENNYKTTPPVLDSDGSFFLVSKLTVDKSRWQQGNVFSCSVMHEALHNHYTQKSLSLSPGK
# heavy 2: not shown
# notes: HC1 huBH56-3-hole (VHH, EPKSS, Fc hole); HC2 CD3ScFv-knob (CD3 VH, linker, CD3 VL, EPKSS, Fc knob); also called anti-CD3/BCMA bispecific antibody; diabody
# B2: 2xhuBH56-3-CD3ScFv (bispecific antibody)
# heavy 1: EVQVVESGGGLIQPGGSLRLSCAASGFTFAPSAMSWARQPPGKEVEWVSGIYGDGRTTYADSVKGRFTISRDNSKNTVYLQMNSLRAEDTAVYYCVVGIRLLSESWAQALRGQGTQVTVSSGGGGSEVQVVESGGGLIQPGGSLRLSCAASGFTFAPSAMSWARQPPGKEVEWVSGIYGDGRTTYADSVKGRFTISRDNSKNTVYLQMNSLRAEDTAVYYCVVGIRLLSESWAQALRGQGTQVTVSSEPKSSDKTHTCPPCPAPEAAGGPSVFLFPPKPKDTLMISRTPEVTCVVVAVSHEDPEVKFNWYVDGVEVHNAKTKPREEQYNSTYRVVSVLTVLHQDWLNGKEYKCKVSNKALAAPIEKTISKAKGQPREPQVCTLPPSRDELTKNQVSLSCAVKGFYPSDIAVEWESNGQPENNYKTTPPVLDSDGSFFLVSKLTVDKSRWQQGNVFSCSVMHEALHNHYTQKSLSLSPGK
# heavy 2: not shown
# notes: HC1 carries two huBH56-3 VHHs in tandem (GGGGS linker) on Fc hole; HC2 is CD3ScFv-knob; also called anti-CD3/BCMA bispecific antibody; diabody
# B3: huHA68-4-CD3ScFv (bispecific antibody)
# heavy 1: EVQLVETGGGLIQPGGSLRLSCAASGFTFSPSAMSWARQAPGKGLEWVSGIYGDGKAEYADSVKGRFTISRDNSKNTVYLQMNSLRAEDTAVYSCAVGIRPTDAPWAASLRGQGTLVTVSSEPKSSDKTHTCPPCPAPEAAGGPSVFLFPPKPKDTLMISRTPEVTCVVVAVSHEDPEVKFNWYVDGVEVHNAKTKPREEQYNSTYRVVSVLTVLHQDWLNGKEYKCKVSNKALAAPIEKTISKAKGQPREPQVCTLPPSRDELTKNQVSLSCAVKGFYPSDIAVEWESNGQPENNYKTTPPVLDSDGSFFLVSKLTVDKSRWQQGNVFSCSVMHEALHNHYTQKSLSLSPGK
# heavy 2: not shown
# notes: HC1 huHA68-4-hole; HC2 CD3ScFv-knob; also called anti-CD3/BCMA bispecific antibody; diabody
# B4: 2xhuHA68-4-CD3ScFv (bispecific antibody)
# heavy 1: EVQLVETGGGLIQPGGSLRLSCAASGFTFSPSAMSWARQAPGKGLEWVSGIYGDGKAEYADSVKGRFTISRDNSKNTVYLQMNSLRAEDTAVYSCAVGIRPTDAPWAASLRGQGTLVTVSSGGGGSEVQLVETGGGLIQPGGSLRLSCAASGFTFSPSAMSWARQAPGKGLEWVSGIYGDGKAEYADSVKGRFTISRDNSKNTVYLQMNSLRAEDTAVYSCAVGIRPTDAPWAASLRGQGTLVTVSSEPKSSDKTHTCPPCPAPEAAGGPSVFLFPPKPKDTLMISRTPEVTCVVVAVSHEDPEVKFNWYVDGVEVHNAKTKPREEQYNSTYRVVSVLTVLHQDWLNGKEYKCKVSNKALAAPIEKTISKAKGQPREPQVCTLPPSRDELTKNQVSLSCAVKGFYPSDIAVEWESNGQPENNYKTTPPVLDSDGSFFLVSKLTVDKSRWQQGNVFSCSVMHEALHNHYTQKSLSLSPGK
# heavy 2: not shown
# notes: HC1 carries two huHA68-4 VHHs in tandem (GGGGS linker) on Fc hole; HC2 is CD3ScFv-knob; also called anti-CD3/BCMA bispecific antibody; diabody
# B5: humanized anti-GPRC5D VHH-Fc antibody 8H5 (antibody, human IgG1, V domains shown)
# VH: EVQLLESGGGLVQPGGSLRLSCAASGIFLSASVMSWYRQAPGKQRELVASMLNSNTNYADSVKGRFTISRDNSKNTMYLQMNSLRAEDTAVYYCNAERSGVYWGQGTQVTVSS
# notes: also called hu8H5; humanized anti-GPRC5D VHH 8H5-Fc
# B6: BH56-IgG (antibody, V domains shown)
# VH: EVQVVESGGGLVQAGESLTLSCAASGFTFAPSAMSWARQPPGKEVEWVSGIYGDGRTTYADSVKGRFTISRDNAKKTVTLQMNNLEPEDSGNYICVVGIRLLSESWAQALRGQGTQVTVSS
# notes: also called anti-human BCMA chimeric antibody
# B7: huBH56-3-IgG (antibody, V domains shown)
# VH: EVQVVESGGGLIQPGGSLRLSCAASGFTFAPSAMSWARQPPGKEVEWVSGIYGDGRTTYADSVKGRFTISRDNSKNTVYLQMNSLRAEDTAVYYCVVGIRLLSESWAQALRGQGTQVTVSS
# notes: Humanized VHH-Fc heavy-chain antibody; Fc with L234A, L235A, D265A, P329A
# B8: huBH56-4-IgG (antibody, V domains shown)
# VH: B7 VH with V4L, T58Y
# notes: Humanized VHH-Fc heavy-chain antibody
# B9: huBH56-5-IgG (antibody, V domains shown)
# VH: B7 VH with Y94I
# notes: as for B8
# B10: huBH56-6-IgG (antibody, V domains shown)
# VH: B7 VH with V4L, E44G, V45L, T58Y
# notes: as for B8
# B11: huHA68-4-IgG (antibody, V domains shown)
# VH: EVQLVETGGGLIQPGGSLRLSCAASGFTFSPSAMSWARQAPGKGLEWVSGIYGDGKAEYADSVKGRFTISRDNSKNTVYLQMNSLRAEDTAVYSCAVGIRPTDAPWAASLRGQGTLVTVSS
# notes: as for B8
# B12: HA68-IgG (antibody, V domains shown)
# VH: B11 VH with E1Q, I12V, S35N, S49A, S74A, T77M, N83V, S84N, A87P, L116Q
# notes: as for B6
# B13: huHA68-3-IgG (antibody, V domains shown)
# VH: B11 VH with S94Y
# notes: as for B8
# B14: 269B094 (a fully human monoclonal antibody targeting BCMA) (antibody, V domains shown)
# VH: DVQLVESGGGLVQPGGSLRLSCAASGRTFSSIVMGWFRQAPGKEREFVGAIMWNDGITYLQDSVKGRFTIFRDNAKNTVYLQMNSLKLEDTAVYYCAASKGRYSEYEYWGQGTQVTVSS
# notes: also called control antibody; control sample
# Target: T1, human BCMA protein expressed on the …
# Assay: flow cytometry on CHOK1-huBCMA cells
row,Binder,binding result
1,B1,binds
2,B2,binds
3,B3,binds
4,B4,binds

# Target: T3, human GPRC5D protein expressed on the cell surface (human, UniProt Q9NZD1 1-345)
# T3 construct: NP_061124.1 (NCBI) and Q9NZD1 (UniProt) are printed; also called CHO-K1-huGPRC5D
# Assay: flow cytometry on 293T-huGPRC5D cells
# T3 sequence (Q9NZD1 whole entry): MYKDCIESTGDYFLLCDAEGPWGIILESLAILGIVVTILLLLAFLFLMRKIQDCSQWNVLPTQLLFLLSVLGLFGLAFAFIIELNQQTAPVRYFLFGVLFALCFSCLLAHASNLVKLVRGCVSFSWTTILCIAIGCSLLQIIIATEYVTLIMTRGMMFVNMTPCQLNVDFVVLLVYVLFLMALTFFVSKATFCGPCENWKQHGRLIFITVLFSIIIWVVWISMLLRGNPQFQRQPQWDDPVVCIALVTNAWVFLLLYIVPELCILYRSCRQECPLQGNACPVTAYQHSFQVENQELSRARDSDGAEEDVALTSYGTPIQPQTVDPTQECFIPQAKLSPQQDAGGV
row,Binder,binding result
1,B5,binds

# Target: T2, human BCMA-His protein (ACRO, Cat#: …)
# Assay: BLI (ForteBio Octet RED96e), antibody on AHC sensor, 100 nM human BCMA-His, 1:1 model
Binder,Kd [pM],koff [s⁻¹],kon [M⁻¹ s⁻¹]
B6,< 1,< 1e-07,1e+06
B7,< 1,< 1e-07,1e+06
B8,< 1,< 1e-07,1e+06
B9,< 1,< 1e-07,1e+06
B10,< 1,< 1e-07,979000
B11,< 1,< 1e-07,1e+06
B12,< 1,< 1e-07,1e+06
B13,< 1,< 1e-07,1e+06
B14,1510,0.00155,1e+06
